Substitutions are numbered along the chain they refer to. Numbers in names are those of the source.
B1: μ4-D190S: D190S mutant of μ4 (C-terminal domain in vitro; full-length, HA-tagged or untagged, in cells) (protein)
chain: QQSKVAPSSAASRPVLSSRSDQSQKNEVFLSVVERLSVLIASNGSLLKVDVQGEIRLKSFLPSGSEMRIGLTEEFCVGKSELRGYGPGIRVDEVSFHSSVNLDEFESHRILRLQPPQGELTVMRYQLSDDLPSPLPFRLFPSVQWDRGSGRLQVYLKLRCDLLSKSQALNVRLHLPLPRGVVSLSQELSSPEQKAELAEGALRWDLPRVQGGSQLSGLFQMDVPGPPGPPSHGLSTSASPLGLGPASLSFELPRHTCSGLQVRFLRLAFRPCGNANPHKWVRHLSHSDAYVIRI
modifications: left off: GST, N-terminal, cleaved
B2: μ4-R283D: μ4 with the single mutation R283D at the μ4-binding site (C-terminal domain; untagged full-length in b45) (protein)
chain: B1 chain with S31D, R124D
modifications: left off: GST, N-terminal, cleaved
B3: R441A: μ4 mutant, μ2-binding site, Y2H construct (protein)
chain: MISQFFILSSKGDPLIYKDFRGDSGGRDVAELFYRKLTGLPGDESPVVMHHHGRHFIHIRHSGLYLVVTTSENVSPFSLLELLSRLATLLGDYCGSLGEGTISRNVALVYELLDEVLDYGYVQTTSTEMLRNFIQTEAVVSKPFSLFDLSSVGLFGAETQQSKVAPSSAASRPVLSSRSDQSQKNEVFLDVVERLSVLIASNGSLLKVDVQGEIRLKSFLPSGSEMRIGLTEEFCVGKSELRGYGPGIRVDEVSFHSSVNLDEFESHRILRLQPPQGELTVMRYQLSDDLPSPLPFRLFPSVQWDRGSGRLQVYLKLRCDLLSKSQALNVRLHLPLPRGVVSLSQELSSPEQKAELAEGALRWDLPRVQGGSQLSGLFQMDVPGPPGPPSHGLSTSASPLGLGPASLSFELPRHTCSGLQVRFLRLAFRPCGNANPHKWVAHLSHSDAYVIRI
modifications: left off: Gal4 activation domain, end not stated, kept
B4: F264A: μ4 mutant, μ4-binding site, Y2H construct (protein)
chain: B3 chain with F264A, A441R
modifications: left off: Gal4 activation domain, end not stated, kept
B5: µ4-D190A-HA: HA-epitope-tagged full-length μ4-D190A, overexpressed (protein)
chain: B3 chain with D190A, A441R
modifications: left off: HA, end not stated, kept
B6: µ4-R283D-HA: HA-epitope-tagged full-length μ4-R283D, overexpressed (protein)
chain: B3 chain with R283D, A441R
modifications: left off: HA, end not stated, kept
B7: L261K: μ4 mutant, μ4-binding site, Y2H construct (protein)
chain: B3 chain with L261K, A441R
modifications: left off: Gal4 activation domain, end not stated, kept
B8: E265R: μ4 mutant, μ4-binding site, Y2H construct (protein)
chain: B3 chain with E265R, A441R
modifications: left off: Gal4 activation domain, end not stated, kept
B9: µ4-F255A-HA: HA-epitope-tagged full-length μ4-F255A, overexpressed (protein)
chain: B3 chain with F255A, A441R
modifications: left off: HA, end not stated, kept
B10: µ4-HA: HA-epitope-tagged full-length wild-type μ4, overexpressed (protein)
chain: B3 chain with A441R
modifications: left off: HA, end not stated, kept

Key:
[1] = system: APP-GFP; experiment: Distribution of APP-GFP in MDA-MB-231 cells; type: cell-based, human; settings: for APP redistribution (figure title): APP-GFP F615P/D664A, EEA1, TGN46 staining; for change in distribution of APP: HA-epitope-tagged constructs, 24 h after transfection, EEA1/TGN46 immunofluorescence
Procedure: H4 human neuroglioma or MDA-MB-231 human mammary gland epithelial cells obtained from the American Type Culture Collection (Manassas, VA) were maintained in DMEM (H4) or DMEM/F12 (MDA-MB-231) supplemented with 10% (v/v) fetal bovine serum (FBS), 100 U/ml penicillin and 100 µg/ml streptomycin (Life Technologies). Transfections were carried out using Lipofectamine 2000 (Life Technologies) for 1 h at 37°C in the absence of FBS, and cells were analyzed 16, 24 or up to 36-h after transfection, for which we observed no notorious signs of loss in cell viability. SDS-PAGE, immunoblotting, and immunoprecipitation were performed as described. H4 cells after 16 h of transfection were washed twice with cold phosphate buffered saline supplemented with 0.1 mM CaCl2 and 1 mM MgCl2 (PBS-Ca/Mg), and incubated at 4°C for 1 h in lysis buffer (50 mM Tris-HCl pH 7.4, 150 mM NaCl, 1 mM EDTA, 1% (v/v) Triton X-100, and a cocktail of protease inhibitors). Soluble extracts were subjected to overnight immunoprecipitation at 4°C either with rabbit anti-HA-epitope antibody (kindly provided by R. Hegde, MRC Laboratory of Molecular Biology, Cambridge, UK) or with mouse antibody to the ε subunit of AP-4 (BD Biosciences) immobilized onto protein A- or a 1∶1 mix of protein A- and protein-G Sepharose beads (GE Healthcare), respectively. Soluble extracts and immunoprecipitates were processed by SDS-PAGE and blotted with horseradish peroxidase-conjugated mouse anti-HA antibody (Macs Miltenyi Biotec) or with mouse antibody to the ε subunit of AP-4.
Indirect immunofluorescence staining of fixed, permeabilized cells was performed as previously described, using sheep polyclonal antibody anti-TGN46 (Serotec), and mouse monoclonal antibody anti-EEA1 (BD Biosciences) or rabbit polyclonal antibody anti-EEA1 (Santa Cruz Biotechnology), followed by the secondary antibodies Alexa-647–conjugated donkey anti-mouse IgG, Alexa-594–conjugated donkey anti-rabbit IgG, or Alexa-594– or -647–conjugated donkey anti-sheep IgG (Life Technologies). Images were acquired either with an Olympus FluoView FV1000 scanning unit fitted on an inverted Olympus IX81 microscope and equipped with a PlanApo 60x oil immersion objective (NA 1.40; Olympus, Melville, NY), using similar settings as described previously, or with an AxioObserver.D1 microscope equipped with a PlanApo 63x oil immersion objective (NA 1.4), and an AxioCam MRm digital camera (Carl Zeiss). Quantitative analysis of colocalization was performed as we previously described, with minor modifications. Briefly, 12-bit images were acquired under identical settings avoiding signal saturation, and corrected for noise, cross-talk, and background signals on each set of images. The signals of TGN46 or EEA1 in each set of images were used in Image J (version 1.44o; Wayne Rasband, NIH, http://imagej.nih.gov) to define masks regarded as Golgi/TGN or early endosomes localization, respectively. The percentage of localization in each compartment was calculated for each cell (n = 10–15) subtracting either the Golgi/TGN or the early endosomes mask from the total integrated pixel intensity of APP-GFP, and the remainder of the signal was considered as in the ‘rest of the cell’.
We next examined the functional role of both the μ2- and the μ4-binding site of μ4 on the intracellular trafficking of APP. We have shown that the YKFFE-μ4 interaction is functional in vivo because its disruption by depletion of μ4 by RNAi produces a shift in the distribution of APP from endosomes to the TGN [18]. To evaluate now the function of each binding site for tyrosine-based signals, we tested a dominant-negative effect by overexpressing untagged or HA-epitope-tagged full-length wild-type μ4 or the variants untagged or HA-epitope-tagged μ4-D190A, μ4-D190S, μ4-F255A or μ4-R283D in H4 neuroglioma cells, as well as in MDA-MB-231 mammary gland epithelial cells, and examined by immunofluorescence the distribution of APP-GFP. […]

[2] = system: cytosolic tail of APP; experiment: Yeast two-hybrid (Y2H) analysis of μ4 with the APP tail; type: binding; settings: growth on -His plates, 30°C; for effect of mutation on binding to the APP YKFFE signal (Y2H): mutations at μ4-binding site
Text: The cloning of the tail of APP (residues 649–695), full-length human μ4, and all the other yeast two-hybrid (Y2H) constructs, and the cloning of the C-terminal domain of μ4 for expression in E. coli was described previously. To generate a construct for mammalian expression, full-length human μ4 was obtained by PCR amplification and cloned into the EcoRI and SalI sites of pEGFP-N1 (BD BiosciencesClontech, Mountain View, CA) including a stop-codon before the GFP coding sequence. The cloning of APP-GFP carrying the double mutation F615P/D664A was described previously. Single amino acid substitutions were introduced using the QuikChange mutagenesis kit (Stratagene, La Jolla, CA). Y2H assays were performed as previously described. A set of pCI-neo (Promega) constructs encoding hemagglutinin (HA)-epitope tagged wild-type or mutants of human μ4 was a generous gift of J. Bonifacino and R. Mattera (Cell Biology and Metabolism Program, NICHD, NIH). The nucleotide sequences of all recombinant constructs were confirmed by dideoxy sequencing.
Figure 1 Yeast two-hybrid analysis of the interaction of μ4 with the cytosolic tail of APP. (A) Superposition of the surface and ribbon representations of human wild-type μ4 C-terminal domain (pdb entry 3L81). The insets show an enlargement of the μ4-binding site and the putative μ2-binding site with residues chosen for the yeast two-hybrid (Y2H) analysis. The APP peptide (TYKFFEQ; stick model) bound to the μ4-binding site is in yellow, and the EGFR peptide (FYRALM; stick model; pdb entry 1BW8) superposed to the putative μ2-binding site is in magenta. (B) Sequence alignment of the C-terminal domain of the μ subunits of known crystal structure depicting critical residues at the corresponding μ2- and μ4-binding sites. Disordered loops are in yellow letters, and arrows and cylinders represent β-strands and α-helices, respectively. M.m., Mus musculus; R.n., Rattus norvegicus; H.s., Homo sapiens. (C) and (D) Yeast were co-transformed with plasmids encoding Gal4bd fused to the cytosolic tail of the amyloid precursor protein (APP) indicated on the left, and Gal4ad fused to wild-type or mutant μ4 constructs indicated on top of each panel. (C) Y2H analysis of μ4 with mutations on the YKFFE binding site (μ4-binding site). (D) Y2H analysis of μ4 with mutations on a putative YXXØ binding site (μ2-binding site). Mouse p53 fused to Gal4bd and SV40 large T antigen (T Ag) fused to Gal4ad were used as controls. Co-transformed cells were spotted onto His-deficient (-His) or His-containing (+His) plates and incubated at 30°C. Growth is indicative of interactions. Some mutations on either of the two sites affect the interaction of μ4 with the cytosolic tail of APP.

Molecule | APP redistribution (figure title) ([1]; 24 h) | effect of mutation on binding to the APP YKFFE signal (Y2H) [2] | change in distribution of APP [1] | further results
B1 |  |  |  | effect on localization of APP-GFP in endosomes ([1]; either HA-epitope-tagged or untagged, 24 h): little or no effect
B2 | APP redistributes from endosomes to the TGN |  |  | 
B3 |  |  |  | effect of mutation on interaction of the APP tail with μ4 (Y2H) ([2]; mutations at μ2-binding site): little or no effect
B4 |  | drastically reduced |  | 
B5 |  |  | minor redistribution of APP to the TGN | 
B6 | APP redistributes from endosomes to the TGN |  | strong redistribution of APP from endosomes to the TGN | 
B7 |  | completely abolished |  | 
B8 |  | completely abolished |  | 
B9 | APP redistributes from endosomes to the TGN |  | strong redistribution of APP from endosomes to the TGN | 
B10 |  |  | no apparent change in the distribution of APP | 

From PMC3912200, “Structural and Functional Characterization of Cargo-Binding Sites on the μ4-Subunit of Adaptor Protein Complex 4” (PLoS ONE, 2014)
